1 molecule from patent US20170101442A1 (published 2017) can be followed below.

One test has as its target 422. In words: cell binding (labeled cells %); HSC-T6 cells; apparent Kd.
In the next test the target is 515. The test is described as above.

B1: HSC-T6 cells (receptor)
chain: QAVDLDALCSYTWEAVDSKNNAVYKINPCGHVDNPRCGPTSAVCMCDLKSENCRSVGDSLLRSSAKSLLEFNTTTGCQPSEHRIQTSITFLCGKTLGTPEFVTATDCVHYFEWRTTAACKKDIFKADKEVPCYVFDDKLQKHDLNPLIKLNGGYLVDDSDADASLFINVCRDIDSLRDPSTQLRVCPAGTAACLLKGNQAFDVGRPKEGLKLLSKDRLVLTYVKEEGEKPDFCNGHSPAVTVTFVCPSERREGTIPKLTAKSNCRYEVEWITEYACHRDYLESETCSLSSEQHDIAIDLSPLAQHEEGSPYVADGGEYRFFMNVCGDTKVSLCNKEAAVCQEKKVDSTQVKIAGRHQNQTLRYSDGDLTLIYSGGDECSSGFQRMSVINFECNKTAGQDGRGEPVFTGEVDCTYFFTWDTKYACVKEKEDLLCGAIDGKKRYDLSVLARHSESEQNWEAVDGSQAESEKRNFFINVCHRVLQAGKAKNCPEGAAVCAVDKSGSKNLGKFVSSPTKEKGHIQLSYSDGDDCGNDKKITTNITFVCKPGDLESAPVLRAAGPDGCSYEFEWHTAAACVLSQTEGENCTVLDAQAGFSFDLSLLTKKNGAYKVETDKYDFYINVCGPVSVNLCQSNSGACQVAKSGKSWNLGLSNTKLTYYDGMIQLSYRNGTLYNNEKHTPRSTLITFLCDRDAGVGFPEYQEEDNSTYNFRWYTSYACPEEPLECMVTDPSMMEQYDLSSLVKFEGGRGGNWYAMENSREHFTRRKYYLNVCRPLNPVPGCDRYASACQMKYENNEGSLAETVAISNLGVAKTGPVVEESGSLLLEYVNGSACTTSDGRLTTYSTRIHLVCGRGTMNSHPIFTFNWECVVSFLWNTEAACPIQTITDSDQACSIRDPNSGFVFNLSPLNYSQGHMVLGIGKTFVFNICGTMPACGTVAGKPALGCEAETKIKDIKDLKPERPVGMEKSLQLSAEGFLTLTYKGSSPSDRGTAFIIRFICNGDIYPGTPKFLHQDIDSARGIRNTFFEFETALACIPSVVDCQVTDPAGNEYDLSALSMVRKPWTAVDTSVHGKKRRFYLSVCTPLPYIPGCDGIAMGSCMVSEDKSQNLGVVQISPQATGNGSLSILYVNGDRCGNQRYSTRIVFECAQTSGSPMFQLLNNCEYVFVWRTVEACPVVREEGDNCQVKDPRHGNLYDLKPLALNDTIISAGEYTYYFRVCGKLSLDVCSAHDGSKAVSSCQEKKGPQGFQKVAGLLNQKLTFENGLLKMNYSGGDTCHKVYQRSTTIYFYCDRTTQKPVFLKETLDCSYLFEWRTQYACPPFNVTECSIQDEAGNSIDLSSLSRYSDNWEAVTRTGATEHYLINVCKSLSPQAGTDPCPPEAAVCLLDGSKPVNLGRVRDGPQWTAGVTVLKYVDGDLCPDKIRKRSTIIRFTCSDSQVNSRPLFISAVQDCEYTFSWPTPAACPVKSNIHDDCQVTNPSTGHLFDLSSLSGKAGITASYSEKGMVFMSICEENVNCSPGVGACFGQTRISVGQASKRLSYKDQVLQLVYENGSPCPSKSGLRYKSVISFVCRPEAGPTNRPMLISLDKQSCTLFFSWHTPLACEQATECTVRNGSSIIDLSPLIHRTGGYEAYDESEDDTSDTTPDFYINICQPLNPMHGVPCPAGASVCKVPVDGPPIDIGRVTGPPIFNPVANEVYLNFESSTPCLADKYMNYTSLIAFHCRRGISMVTRDAHTYSIGVCTTAADLDQEGCKDGGVCLLSGSKGASFGRLASMQLDYRHQDEAVILSYVNGDPCPPETEDGEPCVFPFIYKGETYDECVLEGRAKLWCSKTANYDRDHEWGFCRPSTLSICAKEYIKVPWTALREPAFARRVPLVKSRFWGLFILKNWKS
As for B1, the Kd stood at 402 µM with 422 and 57.6 µM with 515.
